Results as given in US9272016B2, “Methods to enhance RNAi oligonucleotide delivery to respiratory epithelial cells” (University of Iowa Research Foundation, priority 2012, dated 2016).

B1: KGF: Keratinocyte growth factor, a member of the fibroblast growth factor family (protein, UniProt P21781 32-194, looked up)
Fibroblast growth factor 7: CNDMTPEQMATNVNCSSPERHTRSYDYMEGGDIRVRRLFCRTQWYLRIDKRGKVKGTQEMKNNYNIMEIRTVAVGIVAIKGVESEFYLAMNKEGKLYAKKECNEDCNFKELILENHYNTYASAKWTHNGGEMFVALNQKGIPVRGKKTKKEQKTAHFLPMAIT
B2: EGF: human Epidermal Growth Factor (Sigma-Aldrich) (protein, UniProt P01133 23-1207, looked up)
Pro-epidermal growth factor: PQHWSCPEGTLAGNGNSTCVGPAPFLIFSHGNSIFRIDTEGTNYEQLVVDAGVSVIMDFHYNEKRIYWVDLERQLLQRVFLNGSRQERVCNIEKNVSGMAINWINEEVIWSNQQEGIITVTDMKGNNSHILLSALKYPANVAVDPVERFIFWSSEVAGSLYRADLDGVGVKALLETSEKITAVSLDVLDKRLFWIQYNREGSNSLICSCDYDGGSVHISKHPTQHNLFAMSLFGDRIFYSTWKMKTIWIANKHTGKDMVRINLHSSFVPLGELKVVHPLAQPKAEDDTWEPEQKLCKLRKGNCSSTVCGQDLQSHLCMCAEGYALSRDRKYCEDVNECAFWNHGCTLGCKNTPGSYYCTCPVGFVLLPDGKRCHQLVSCPRNVSECSHDCVLTSEGPLCFCPEGSVLERDGKTCSGCSSPDNGGCSQLCVPLSPVSWECDCFPGYDLQLDEKSCAASGPQPFLLFANSQDIRHMHFDGTDYGTLLSQQMGMVYALDHDPVENKIYFAHTALKWIERANMDGSQRERLIEEGVDVPEGLAVDWIGRRFYWTDRGKSLIGRSDLNGKRSKIITKENISQPRGIAVHPMAKRLFWTDTGINPRIESSSLQGLGRLVIASSDLIWPSGITIDFLTDKLYWCDAKQSVIEMANLDGSKRRRLTQNDVGHPFAVAVFEDYVWFSDWAMPSVMRVNKRTGKDRVRLQGSMLKPSSLVVVHPLAKPGADPCLYQNGGCEHICKKRLGTAWCSCREGFMKASDGKTCLALDGHQLLAGGEVDLKNQVTPLDILSKTRVSEDNITESQHMLVAEIMVSDQDDCAPVGCSMYARCISEGEDATCQCLKGFAGDGKLCSDIDECEMGVPVCPPASSKCINTEGGYVCRCSEGYQGDGIHCLDIDECQLGEHSCGENASCTNTEGGYTCMCAGRLSEPGLICPDSTPPPHLREDDHHYSVRNSDSECPLSHDGYCLHDGVCMYIEALDKYACNCVVGYIGERCQYRDLKWWELRHAGHGQQQKVIVVAVCVVVLVMLLLLSLWGAHYYRTQKLLSKNPKNPYEESSRDVRSRRPADTEDGMSSCPQPWFVVIKEHQDLKNGGQPVAGEDGQAADGSMQPTSWRQEPQLCGMGTEQGCWIPVSSDKGSCPQVMERSFHMPSYGTQTLEGGVEKPHSLLSANPLWQQRALDPPHQMELTQ
modifications: Pro-epidermal growth factor

Columns and labels:
Format in all cases: cell-based
HPRT mRNA [1] = experiment: Pretreatment of well differentiated pig airway epithelia before HPRT siRNA transfection, qPCR; conditions: well differentiated PAE; KGF 50 ng/ml 24 h, EGTA 6 mM 30 m, LLnL 40 μM 24 hrs; then 250 nM HPRT siRNA with RNAiMAX or Transductin
Method: (§1) For airway epithelia that were either well or poorly differentiated, transfection was done mostly according to the manufacturer's protocol. In all cases, the apical surface of epithelia was washed twice with PBS before adding the transfection mixture to the apical surface. The mixture was then left on the cells for 24 h for all transfection reagents. For PK1 cells, reverse transfection was performed in a 48-well plate by first adding the siRNA-RNAiMAX reagent mixture onto the plate and then adding the dispersed cells (40,000 cells) on top of the mixture and allowing the cells to adhere and establish growth for 24 h. […]
(§2) Total RNA was isolated using SV96 RNA isolation kit (Promega), according to manufacturer's protocol. […] One-fifteenth of the cDNA was then amplified and analyzed by Taqman assay in the 7900 Real Time PCR System (Applied Biosystems) using synthesized primer-probe pairs (IDT, Coralville, Iowa), reaction buffer and Immolase DNA polymerase (Bioline, Taunton, Mass.). […] Absolute quantification of an mRNA target sequence within an unknown sample was determined by reference to a standard curve. […]
(§3) Wortmannin was purchased from Sigma (St. Louis, Mo.) as a ready to use solution. […]

human airway epithelia = experiment: Confocal imaging of DIG-labeled siRNA uptake in human airway epithelia; conditions: EGF 100 μg/ml for 15 min, imaged 2 h after transfection, vs untreated cells (data not shown)
Method: The primary human airway epithelia grown at air-liquid interface were transfected with the DIG-labeled siRNA at a concentration of 250 ng/ml after complexing with Transductin. The transfection mixture was left on the apical surface for 2 h. At the end of this period, the cells were fixed in 2% formaldehyde, permeabilized in 0.2% Triton-x-100 and blocked in 1% BSA for 1 h. The cells were then stained with mouse antibody to DIG (Roche Biochemicals) for 1 h followed by either Alexa 488 labeled goat anti-mouse secondary antibody for 1 h followed by Alexa 488 labeled rabbit […] antibody (Invitrogen) for 1 or in some cases with Alexa 564 goat anti-mouse secondary antibody for 1 h. The cells were finally stained with nuclear stain, ToPro 3 for 10 minutes. The filter, containing the cells, was removed from the culture insert by cutting the edges with razor blade and then mounted onto a slide by the use of Vectashield. The slide was visualized by confocal microscopy.

HPRT mRNA [2] = experiment: Pretreatment of well-differentiated human airway epithelia before HPRT siRNA transfection, qPCR
Method: as §1, §2, §3

Row | Molecule | silencing of HPRT mRNA after pretreatment (HPRT mRNA [1]) | uptake of the DIG signal (human airway epithelia) | decrease in HPRT mRNA levels (HPRT mRNA [2]; human airway cells, EGF 100 μg/ml for 15 min apically before siRNA-Transductin (250 nM), 3 donors) | siRNA uptake and knockdown (HPRT mRNA [2]; pretreatment of the mucosal surface with EGF (200 μg/ml), well differentiated cells, species not stated)
1 | B1 | did not reduce |  |  | 
2 | B2 |  | increased uptake | 15-20% | enhanced uptake and facilitated siRNA knockdown
